# Experimental data from patent US20250129150A1 (APOGEE THERAPEUTICS, published 2025).
# Values joined by “and” are separate entries in the source; they are usually repeats but may differ in a detail not shown here. Equal values may be shown once.
# How the values were obtained:
# hIL-13 [1] = molecular target: T1, hIL-13 (human, UniProt P35225 35-146, limits assumed); experiment: cell-based or functional assay
# hIL-13 [2] = molecular target: T1, hIL-13; experiment: cell-based or functional assay; remark: listed apart in the source
# hIL-13 [3] = molecular target: T1, hIL-13; experiment: cell-based or functional assay; remark: listed apart in the source
# hIL-13 [4] = molecular target: T1, hIL-13; experiment: ELISA
# [5] = molecular target: T2, Recombinant Cynomolgus IL-13 Protein, His Tag (SINO BIOLOGICAL, Cat. 11057-C07H) (cynomolgus monkey, UniProt Q5I6E4 19-132 (Macaca thibetana entry)); experiment: SPR (Biacore 8K), mAb captured on Protein G chip, IL-13 as analyte
# T2 construct: also called Cyno IL-13; cynomolgus monkey IL-13
# T2 chain: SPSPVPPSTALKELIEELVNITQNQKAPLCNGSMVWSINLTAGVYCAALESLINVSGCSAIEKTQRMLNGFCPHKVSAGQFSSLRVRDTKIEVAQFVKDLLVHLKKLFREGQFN
# Protocol: (§1) Samples were injected in a multi-cycle manner over freshly captured mAb, by regenerating the capture surfaces with injection of glycine pH 1.5 for 30 sec at a flow rate of 30 μL/min. The data was processed and analyzed with Biacore Insight Evaluation Software Version 2.0.15.12933 (GE Healthcare) as follows. […] The responses from the two buffer blank injections were then subtracted from the reference subtracted data (2-1) to yield double-referenced data, which were fit to an 1:1 binding model to determine the apparent association (ka) and dissociation rate constants (kd). Their ratio provided the apparent equilibrium dissociation constant or affinity constant (KD=kd/ka).
# [6] = molecular target: T3, Recombinant Human IL-13 Protein, His Tag (Acro Cat. IL3-H52H4) (human, UniProt P35225 35-146); experiment: as above
# T3 construct: Bought protein; also called Hu IL-13; not shown: His Tag
# Protocol: as §1
# biotinylated hIL-13 = biotinylated hIL-13 (human, UniProt P35225 35-146, limits assumed, biotinylated (site not stated)); experiment: FACS; blockade of biotinylated hIL-13 (0.05 ug/mL) binding to HEK293 cells expressing hIL-13Rα1/hIL-4Rα
# Protocol: Briefly, HEK293 previously transduced to stably express both hIL-13Rα and hIL-4Rα were cultured and harvested. Cells were seeded at 200,000 cells in 100 uL per well. Cells were washed and the supernatant was discarded. […] The cells were stained in this mixture at 4° C. for 1 hour. […] Cells were incubated at 4° C. for 1 hour, protected from light. Cells were then washed and the median fluorescence intensity (MFI) of cells in each well were recorded by FACS using a BD FACSCanto II. Subsequent data were analyzed using GraphPad Prism.
# hIL-13 [7] = molecular target: T1, hIL-13; experiment: cell-based or functional assay; remark: listed apart in the source
# Chain of biotinylated hIL-13 (P35225 other isoform, or with tags, fused parts or gaps limits assumed): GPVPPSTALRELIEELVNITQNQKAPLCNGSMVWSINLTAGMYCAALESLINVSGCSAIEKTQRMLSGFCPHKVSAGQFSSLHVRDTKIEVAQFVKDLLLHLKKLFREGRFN
# T3 sequence (P35225 other isoform, or with tags, fused parts or gaps limits assumed): as above
# T1 sequence (P35225 other isoform, or with tags, fused parts or gaps limits assumed): as above
Binder,TARC Inhibition IC50 (A549 cells) (hIL-13 [1]) [nM],pSTAT6 Inhibition IC50 (HT-29 cells) (hIL-13 [2]) [nM],TF-1 Proliferation Inhibition IC50 (hIL-13 [3]) [nM],Kd (hIL-13 [4]) [nM],Kd [5] [nM],Kd [6] [nM],IC50 (biotinylated hIL-13) [nM],TARC Release IC50 (A549 cells) (hIL-13 [7])
"Construct 142 (antibody, human IgG4, kappa, also called HC1; LC6_m8) heavy: EVQLQESGPGLVKPSETLSLTCTVSGFSLNAYSVNWIRQPPGKGLEWLGMIWGDGKIVYNSALKSRLTISKDSSKNQVSLKLSSVTAADTAVYYCAGDGYYPYAMDNWGQGTTVTVSSASTKGPSVFPLAPCSRSTSESTAALGCLVKDYFPEPVTVSWNSGALTSGVHTFPAVLQSSGLYSLSSVVTVPSSSLGTKTYTCNVDHKPSNTKVDKRVESKYGPPCPSCPAPEFLGGPSVFLFPPKPKDTLYITREPEVTCVVVDVSQEDPEVQFNWYVDGVEVHNAKTKPREEQFNSTYRVVSVLTVLHQDWLNGKEYKCKVSNKGLPSSIEKTISKAKGQPREPQVYTLPPSQEEMTKNQVSLTCLVKGFYPSDIAVEWESNGQPENNYKTTPPVLDSDGSFFLYSRLTVDKSRWQEGNVFSCSVMHEALHNHYTQKSLSLSLGK light: DIQLTQSPSSLSASVGDRVTITCRASKSVDSYGNSFMHWYQQKPGKAPKLLIYLASELESGVPSRFSGSGSGTDFTLTISSLQPEDFATYYCQQNNEDPRTFGGGTKVEIKRTVAAPSVFIFPPSDEQLKSGTASVVCLLNNFYPREAKVQWKVDNALQSGNSQESVTEQDSKDSTYSLSSTLTLSKADYEKHKVYACEVTHQGLSSPVTKSFNRGEC",0.92,0.29,0.2,0.054,0.326,0.108,0.77,–
"Construct 2 (antibody, human IgG1, kappa) heavy: QVTLRESGPALVKPTQTLTLTCTVSGFSLSAYSVNWIRQPPGKALEWLAMIWGDGKIVYNSALKSRLTISKDTSKNQVVLTMTNMDPVDTATYYCAGDGYYPYAMDNWGQGSLVTVSSASTKGPSVFPLAPSSKSTSGGTAALGCLVKDYFPEPVTVSWNSGALTSGVHTFPAVLQSSGLYSLSSVVTVPSSSLGTQTYICNVNHKPSNTKVDKKVEPKSCDKTHTCPPCPAPELAGAPSVFLFPPKPKDTLYITREPEVTCVVVDVSHEDPEVKFNWYVDGVEVHNAKTKPREEQYNSTYRVVSVLTVLHQDWLNGKEYKCKVSNKALPAPIEKTISKAKGQPREPQVYTLPPSRDELTKNQVSLTCLVKGFYPSDIAVEWESNGQPENNYKTTPPVLDSDGSFFLYSKLTVDKSRWQQGNVFSCSVMHEALHNHYTQKSLSLSPG light: DIVMTQSPDSLSVSLGERATINCRASKSVDSYGNSFMHWYQQKPGQPPKLLIYLASNLESGVPDRFSGSGSGTDFTLTISSLQAEDVAVYYCQQNNEDPRTFGGGTKVEIKRTVAAPSVFIFPPSDEQLKSGTASVVCLLNNFYPREAKVQWKVDNALQSGNSQESVTEQDSKDSTYSLSSTLTLSKADYEKHKVYACEVTHQGLSSPVTKSFNRGEC",–,–,–,–,–,–,–,0.9 nM
"Construct 15 (antibody, human IgG1, kappa) heavy: EVQLQESGPGLVKPSETLSLTCTVSGFSLNAYSVNWIRQPPGKGLEWLGMIWGDGKIVYNSALKSRLTISKDSSKNQVSLKLSSVTAADTAVYYCAGDGYYPYAMDNWGQGTTVTVSSASTKGPSVFPLAPSSKSTSGGTAALGCLVKDYFPEPVTVSWNSGALTSGVHTFPAVLQSSGLYSLSSVVTVPSSSLGTQTYICNVNHKPSNTKVDKKVEPKSCDKTHTCPPCPAPELAGAPSVFLFPPKPKDTLYITREPEVTCVVVDVSHEDPEVKFNWYVDGVEVHNAKTKPREEQYNSTYRVVSVLTVLHQDWLNGKEYKCKVSNKALPAPIEKTISKAKGQPREPQVYTLPPSRDELTKNQVSLTCLVKGFYPSDIAVEWESNGQPENNYKTTPPVLDSDGSFFLYSKLTVDKSRWQQGNVFSCSVMHEALHNHYTQKSLSLSPG light: DIQLTQSPSSLSASVGDRVTITCRASKSVDSYGNSFMHWYQQKPGKAPKLLIYLASNLESGVPSRFSGSGSGTDFTLTISSLQPEDFATYYCQQNNEDPRTFGGGTKVEIKRTVAAPSVFIFPPSDEQLKSGTASVVCLLNNFYPREAKVQWKVDNALQSGNSQESVTEQDSKDSTYSLSSTLTLSKADYEKHKVYACEVTHQGLSSPVTKSFNRGEC",–,–,–,–,–,–,–,0.9 nM
"Construct 19 (antibody, human IgG1, kappa) heavy: EVQLLESGGGLVQPGGSLRLSCAASGFSLNAYSVNWVRQAPGKGLEWLGMIWGDGKIVYNSALKSRLTISKDSSKNTVYLQMNSLRAEDTAVYYCAGDGYYPYAMDNWGQGTTVTVSSASTKGPSVFPLAPSSKSTSGGTAALGCLVKDYFPEPVTVSWNSGALTSGVHTFPAVLQSSGLYSLSSVVTVPSSSLGTQTYICNVNHKPSNTKVDKKVEPKSCDKTHTCPPCPAPELAGAPSVFLFPPKPKDTLYITREPEVTCVVVDVSHEDPEVKFNWYVDGVEVHNAKTKPREEQYNSTYRVVSVLTVLHQDWLNGKEYKCKVSNKALPAPIEKTISKAKGQPREPQVYTLPPSRDELTKNQVSLTCLVKGFYPSDIAVEWESNGQPENNYKTTPPVLDSDGSFFLYSKLTVDKSRWQQGNVFSCSVMHEALHNHYTQKSLSLSPG light: DIQLTQSPSSLSASVGDRVTITCRASKSVDSYGNSFMHWYQQKPGKAPKLLIYLASNLESGVPSRFSGSGSGTDFTLTISSLQPEDFATYYCQQNNEDPRTFGGGTKVEIKRTVAAPSVFIFPPSDEQLKSGTASVVCLLNNFYPREAKVQWKVDNALQSGNSQESVTEQDSKDSTYSLSSTLTLSKADYEKHKVYACEVTHQGLSSPVTKSFNRGEC",–,–,–,–,–,–,–,1.1 nM and 1 nM
"Construct 129 (antibody, human IgG4, kappa, also called Lebrikizumab-HC; Lebrikizumab-LC) heavy: QVTLRESGPALVKPTQTLTLTCTVSGFSLSAYSVNWIRQPPGKALEWLAMIWGDGKIVYNSALKSRLTISKDTSKNQVVLTMTNMDPVDTATYYCAGDGYYPYAMDNWGQGSLVTVSSASTKGPSVFPLAPCSRSTSESTAALGCLVKDYFPEPVTVSWNSGALTSGVHTFPAVLQSSGLYSLSSVVTVPSSSLGTKTYTCNVDHKPSNTKVDKRVESKYGPPCPSCPAPEFLGGPSVFLFPPKPKDTLMISRTPEVTCVVVDVSQEDPEVQFNWYVDGVEVHNAKTKPREEQFNSTYRVVSVLTVLHQDWLNGKEYKCKVSNKGLPSSIEKTISKAKGQPREPQVYTLPPSQEEMTKNQVSLTCLVKGFYPSDIAVEWESNGQPENNYKTTPPVLDSDGSFFLYSRLTVDKSRWQEGNVFSCSVLHEALHSYTQKSLSLSLGK light: DIVMTQSPDSLSVSLGERATINCRASKSVDSYGNSFMHWYQQKPGQPPKLLIYLASNLESGVPDRFSGSGSGTDFTLTISSLQAEDVAVYYCQQNNEDPRTFGGGTKVEIKRTVAAPSVFIFPPSDEQLKSGTASVVCLLNNFYPREAKVQWKVDNALQSGNSQESVTEQDSKDSTYSLSSTLTLSKADYEKHKVYACEVTHQGLSSPVTKSFNRGEC",0.92,0.33,0.21,0.036,0.882,0.239,0.71,–
"Construct 130 (antibody, human IgG1, kappa, L234A L235A, also called Lebrikizumab-HC; Lebrikizumab-LC) heavy: QVTLRESGPALVKPTQTLTLTCTVSGFSLSAYSVNWIRQPPGKALEWLAMIWGDGKIVYNSALKSRLTISKDTSKNQVVLTMTNMDPVDTATYYCAGDGYYPYAMDNWGQGSLVTVSSASTKGPSVFPLAPSSKSTSGGTAALGCLVKDYFPEPVTVSWNSGALTSGVHTFPAVLQSSGLYSLSSVVTVPSSSLGTQTYICNVNHKPSNTKVDKKVEPKSCDKTHTCPPCPAPEAAGGPSVFLFPPKPKDTLYITREPEVTCVVVDVSHEDPEVKFNWYVDGVEVHNAKTKPREEQYNSTYRVVSVLTVLHQDWLNGKEYKCKVSNKALPAPIEKTISKAKGQPREPQVYTLPPSRDELTKNQVSLTCLVKGFYPSDIAVEWESNGQPENNYKTTPPVLDSDGSFFLYSKLTVDKSRWQQGNVFSCSVMHEALHNHYTQKSLSLSPG light: DIVMTQSPDSLSVSLGERATINCRASKSVDSYGNSFMHWYQQKPGQPPKLLIYLASNLESGVPDRFSGSGSGTDFTLTISSLQAEDVAVYYCQQNNEDPRTFGGGTKVEIKRTVAAPSVFIFPPSDEQLKSGTASVVCLLNNFYPREAKVQWKVDNALQSGNSQESVTEQDSKDSTYSLSSTLTLSKADYEKHKVYACEVTHQGLSSPVTKSFNRGEC",1,0.28,0.15,0.027,0.227,0.112,1.05,–
"Construct 131 (antibody, human IgG1, kappa, L234A L235A, also called Lebrikizumab-HC; Lebrikizumab-LC) heavy: not shown light: DIVMTQSPDSLSVSLGERATINCRASKSVDSYGNSFMHWYQQKPGQPPKLLIYLASNLESGVPDRFSGSGSGTDFTLTISSLQAEDVAVYYCQQNNEDPRTFGGGTKVEIKRTVAAPSVFIFPPSDEQLKSGTASVVCLLNNFYPREAKVQWKVDNALQSGNSQESVTEQDSKDSTYSLSSTLTLSKADYEKHKVYACEVTHQGLSSPVTKSFNRGEC",0.99,0.22,0.13,0.019,0.123,0.0756,0.79,–
